Experimental data: PMC7188906

Tests used:
human ACKR4-EYFP (human) [1] = biological target: T1, human ACKR4-EYFP (human) (UniProt Q9NPB9)
T1 sequence: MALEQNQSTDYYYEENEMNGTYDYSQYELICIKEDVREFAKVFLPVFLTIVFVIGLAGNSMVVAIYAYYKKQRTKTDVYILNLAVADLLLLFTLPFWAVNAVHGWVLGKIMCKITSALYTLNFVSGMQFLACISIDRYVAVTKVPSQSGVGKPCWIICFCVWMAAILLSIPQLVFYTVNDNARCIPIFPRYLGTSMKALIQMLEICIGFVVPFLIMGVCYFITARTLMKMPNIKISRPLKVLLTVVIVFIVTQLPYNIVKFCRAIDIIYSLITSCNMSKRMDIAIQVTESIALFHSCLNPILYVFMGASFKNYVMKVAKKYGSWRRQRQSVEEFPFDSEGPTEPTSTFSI

human ACKR4-EYFP (human) [2] = biological target: T1, human ACKR4-EYFP (human); remark: listed apart in the source

EC50 of β-arrestin1-Nluc recruitment to ACKR4-EYFP (BRET, HeLa cells, graded chemokine) (human ACKR4-EYFP (human) [1])	EC50 of β-arrestin2-Nluc recruitment to ACKR4-EYFP (BRET, HeLa cells, graded chemokine) (human ACKR4-EYFP (human) [1])	EC50 of GRK2-Nluc recruitment to ACKR4-EYFP (BRET, HeLa cells, dose-response) (human ACKR4-EYFP (human) [2])	EC50 of GRK3-Nluc recruitment to ACKR4-EYFP (BRET, HeLa cells, dose-response) (human ACKR4-EYFP (human) [2])	Substance
0.076 µM	0.032 µM	0.035 µM	0.042 µM	recombinant human CCL19 (from UniProt Q99731 22-98) (ligand)
0.24 µM	0.133 µM	0.129 µM	0.142 µM	recombinant human CCL21 (from UniProt O00585 24-134) (ligand)
0.115 µM	0.13 µM	0.087 µM	0.147 µM	recombinant human CCL25 (from UniProt O15444 24-150) (ligand)
